Experimental data published in US20250333531A1 (NORDIC NANOVECTOR ASA, published 2025).
Where a chain is given by its changes, count along the chain named.

T1: human CD37 (human, UniProt P11049 1-281)
T1 construct: whole, on cells; also called CD37 antigen
T1 sequence (looked up): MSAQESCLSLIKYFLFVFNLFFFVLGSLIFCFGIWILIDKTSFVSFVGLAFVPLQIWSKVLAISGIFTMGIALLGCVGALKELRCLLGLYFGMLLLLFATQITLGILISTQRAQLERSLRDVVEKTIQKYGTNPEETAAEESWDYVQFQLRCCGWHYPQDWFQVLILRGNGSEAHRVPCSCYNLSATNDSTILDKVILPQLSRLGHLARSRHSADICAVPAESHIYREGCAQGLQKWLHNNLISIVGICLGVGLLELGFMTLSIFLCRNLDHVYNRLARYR

T2: biotinylated truncated soluble human FcγRIIb (human, UniProt P31994 43-217, biotinylated)
T2 construct: extracellular domain; Bought
T2 sequence (looked up): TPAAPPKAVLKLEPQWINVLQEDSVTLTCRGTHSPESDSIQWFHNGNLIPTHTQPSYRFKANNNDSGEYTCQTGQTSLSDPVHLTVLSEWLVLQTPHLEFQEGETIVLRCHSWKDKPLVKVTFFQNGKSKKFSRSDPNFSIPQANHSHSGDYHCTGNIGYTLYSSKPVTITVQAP

T3: biotinylated truncated soluble human FcγRIIa-H131 (human, UniProt P12318 34-217, biotinylated)
T3 construct: extracellular domain; Bought
T3 sequence (looked up): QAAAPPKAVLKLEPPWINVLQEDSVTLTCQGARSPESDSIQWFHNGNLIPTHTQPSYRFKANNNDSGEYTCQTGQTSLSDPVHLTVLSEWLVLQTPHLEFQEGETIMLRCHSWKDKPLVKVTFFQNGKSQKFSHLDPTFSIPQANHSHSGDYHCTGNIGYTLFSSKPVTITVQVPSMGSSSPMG

T4: biotinylated truncated soluble human FcγRIIa-R131 (human, UniProt P12318 34-217, biotinylated)
T4 construct: extracellular domain; Bought
T4 sequence (looked up): T3 sequence (looked up) with H134R

B1: NNV025 (antibody, human IgG1, kappa)
heavy: not shown
light: DIQMTQSPSSLSASVGDRVTITCKASQDVSTAVDWYQQKPGKSPKLLINWASTRHTGVPSRFSGSGSGTDYTLTISSLQPEDFATYYCRQHYSTPFTFGQGTKLEIKRTVAAPSVFIFPPSDEQLKSGTASVVCLLNNFYPREAKVQWKVDNALQSGNSQESVTEQDSKDSTYSLSSTLTLSKADYEKHKVYACEVTHQGLSSPVTKSFNRGEC
notes: Humanized IgG1 kappa; also called AH02871HC + AH02877LC; AH2871HC_2877LC
B2: AH02886 (antibody, human IgG1, kappa, V domains shown)
VH: QVQLVQSGAELKKPGASVKVSCKASGYSFTDYNMYWVKQAPGQRLEWMGYIDPYNGDTTYNQKFKGRVTLTVDTSASTAYMELSSLRSEDTAVYYCARSPYGHYAMDYWGQGTLVTVSS
VL: DIQMTQSPSSLSTSVGDRVTITCKASQDVSTAVDWYQQKPGKAPKLLINWASTRHTGVPSRFSGSGSGTDYTLTISSLQPEDFATYYCRQHYSTPFTFGQGTKLEIKR
notes: Humanized IgG1 kappa; also called NNV027; NNV020 #5
B3: AH02871 (antibody, human IgG1, kappa, V domains shown)
VH: B2 VH with L11V, K12V, L70I, V72R
VL: B2 VL with T13A, L78M
notes: Humanized IgG1 kappa; also called NNV026; NNV020 #1
B4: NNV003 (antibody, human IgG1, kappa)
heavy: not shown
light: DIVMTQSHKLLSTSVGDRVSITCKASQDVSTAVDWYQQKPGQSPKLLINWASTRHTGVPDRFTGSGSGTDYTLTISSMQAEDLALYYCRQHYSTPFTFGSGTKLEIKRTVAAPSVFIFPPSDEQLKSGTASVVCLLNNFYPREAKVQWKVDNALQSGNSQESVTEQDSKDSTYSLSSTLTLSKADYEKHKVYACEVTHQGLSSPVTKSFNRGEC
notes: Mouse/human IgG1 kappa chimera of lilotomab; also called chHH1; chimeric HH1
B5: TCMC-NNV003 (antibody, human IgG1, kappa)
heavy: not shown
light: B4 light
modifications: TCMC chelator conjugate; sites not stated; TCMC chelator conjugate (GGG-TCMC); sites not stated
notes: chains are those of NNV003; also called NNV003-TCMC; NNV003-GGG-TCMC

What was measured:
[1] = molecular target: T1, human CD37; test: competitive radioligand binding on Ramos cells; ratio to Ki of NNV009 (assumed 2.3)
Procedure: (§1) The Eppendorf LoBind tubes 1.5 mL were used to prepare dilutions (working concentrations) of Abs. As much as 0.2 mL of the cell suspension (800 000 cells/tube), after it has been cooled down for 30 min on ice, was aliquoted to glass 12×75 mm counting tubes. Each tube was pre-labeled with a code specifically determining each sample. The tubes with cells were maintained on ice for whole time course of the experiment except for the time when counted on the gamma counter. The tubes were agitated on a planetary shaker at 350 RPM, 4° C. (on ice) for 15 min. […] The tubes were placed on the planetary shaker (GL 064), on ice, and shaken for 4 hours at 350 RPM. After 3.5 hours past from the beginning of incubation, the samples were assayed on Wizard2 gamma counter using protocol “Lu-177 General” (all detectors except for the detector #3 were used). Upon completion the counting, the cells were washed with ice-cold 0.5 mL 0.5% BSAPBS three times. All the tubes were assayed on the Wizard2 gamma counter again using the same sequence and parameters as before the washing.

[2] = molecular target: T1, human CD37; test: competitive radioligand binding on Ramos cells against 177Lu-NNV009 (2.7 nM), gamma counting
Procedure: as §1

[3] = molecular target: T5, biotinylated soluble human FcRn (human, UniProt P55899 24-297; P61769 21-119, biotinylated); test: ELISA: IgG coated at 1000-0.45 ng/ml, biotinylated soluble human FcRn 250 ng/ml pre-complexed with AP-streptavidin, pH 6.0, absorbance 405 nm
T5 construct: extracellular domain; Bought; Beta-2-microglobulin is not mentioned; Used as preformed complex with AP-streptavidin
Procedure: (§2) Remaining surface area were blocked with PBS containing 0.05% T and 4% S for 1 h at RT. The plates were washed four times with PBS/T using a Hydrospeed™ plate washer (Tecan). […] Following washing as above with PBS/T or FcRn binding buffer (67 nM phosphate, 0.1 M NaCl, 0.05% T, pH 6.0), bound receptor was visualized by addition of phosphatase substrate (1 mg/ml in diethanolamine buffer) (Sigma Aldrich). The plates were developed for 20-30 min before the 405 nm absorption values were recorded using a TECAN Sunrise spectrophotometer (Tecan).

[4] = molecular target: T6, biotinylated truncated soluble human FcγRI (human, UniProt P12314 16-292, biotinylated); test: ELISA: IgG coated at 10000-4.5 ng/ml, biotinylated truncated soluble human FcγRI 250 ng/ml pre-complexed with AP-streptavidin, absorbance 405 nm
T6 construct: extracellular domain; Bought; preformed complex with AP-streptavidin
Procedure: as §2, with “96 well EIA/RIA plates (CorningCostar) were coated with 100 μl titrated amounts of IgG variants (10.000-4.5 ng/ml) diluted in PBS and incubated O/N at 4° C. Remaining” for “Remaining”, “above,” for “above with PBS/T or FcRn binding buffer (67 nM phosphate, 0.1 M NaCl, 0.05% T, pH 6.0),”, “15-20” for “20-30”

[5] = molecular target: T2, biotinylated truncated soluble human …; test: ELISA: IgG coated at 10000-4.5 ng/ml, biotinylated truncated soluble human FcγRIIb 250 ng/ml pre-complexed with AP-streptavidin, absorbance 405 nm
Procedure: as §2, with “96 well EIA/RIA plates (CorningCostar) were coated with 100 μl titrated amounts of IgG variants (10.000-4.5 ng/ml) diluted in PBS and incubated O/N at 4° C. Remaining” for “Remaining”, “above,” for “above with PBS/T or FcRn binding buffer (67 nM phosphate, 0.1 M NaCl, 0.05% T, pH 6.0),”, “15-20” for “20-30”

[6] = molecular target: T7, human complement factor C1q (human, UniProt P02745 23-245; P02746 28-253; P02747 29-245); test: ELISA: IgG coated at 20000-156.25 ng/ml, human C1q 360 ng/ml, detected with rabbit anti-human C1q and HRP anti-rabbit IgG (y axis printed as Absorbance 405 nm)
T7 construct: Bought
Procedure: (§3) Remaining surface area were blocked with PBS containing 0.05% T and 4% S for 1 h at RT. The plates were then washed four times with PBS/T using a Hydrospeed™ plate washer (Tecan). Human C1q (Complement Technologies) diluted to 360 ng/ml in veronal buffer (Complement Technologies) were added and incubated for 30 min at 37° C. Detection of bound C1q was performed using a primary anti-human C1q antibody from rabbit (DAKO) diluted 1:10.000 in PBS/T/S and a secondary horseradish peroxidase (HRP) conjugated anti-rabbit IgG antibody diluted 1:5000 in PBS/T/S (GE Healthcare). Binding was visualized by addition of 100 μl TMB substrate (Calbiochem) for 15-20 min before the enzymatic reaction was stopped by addition of 50 μl 1 M HC1. The 450 nm absorption values were recorded using a Sunrise TECAN spectrophotometer (Tecan).

[7] = molecular target: T7, human complement factor C1q; test: repeat ELISA: IgG coated at 20000-156.25 ng/ml, human C1q 360 ng/ml, detected with rabbit anti-human C1q and HRP anti-rabbit IgG (y axis printed as Absorbance 405 nm)
Procedure: as §3

[8] = molecular target: T3, biotinylated truncated soluble human …; test: ELISA: IgG coated at 10000-4.5 ng/ml, biotinylated truncated soluble human FcγRIIa-H131 250 ng/ml pre-complexed with AP-streptavidin, absorbance 405 nm
Procedure: as §2, with “96 well EIA/RIA plates (CorningCostar) were coated with 100 μl titrated amounts of IgG variants (10.000-4.5 ng/ml) diluted in PBS and incubated O/N at 4° C. Remaining” for “Remaining”, “above,” for “above with PBS/T or FcRn binding buffer (67 nM phosphate, 0.1 M NaCl, 0.05% T, pH 6.0),”, “15-20” for “20-30”

[9] = molecular target: T4, biotinylated truncated soluble human …; test: ELISA: IgG coated at 10000-4.5 ng/ml, biotinylated truncated soluble human FcγRIIa-R131 250 ng/ml pre-complexed with AP-streptavidin, absorbance 405 nm
Procedure: as §2, with “96 well EIA/RIA plates (CorningCostar) were coated with 100 μl titrated amounts of IgG variants (10.000-4.5 ng/ml) diluted in PBS and incubated O/N at 4° C. Remaining” for “Remaining”, “above,” for “above with PBS/T or FcRn binding buffer (67 nM phosphate, 0.1 M NaCl, 0.05% T, pH 6.0),”, “15-20” for “20-30”

[10] = molecular target: T8, biotinylated truncated soluble human FcγRIIIa-F158 (human, UniProt P08637 17-208, biotinylated); test: ELISA: IgG coated at 10000-4.5 ng/ml, biotinylated truncated soluble human FcγRIIIa-F158 250 ng/ml pre-complexed with AP-streptavidin, absorbance 405 nm
T8 construct: extracellular domain; Bought
Procedure: as §2, with “96 well EIA/RIA plates (CorningCostar) were coated with 100 μl titrated amounts of IgG variants (10.000-4.5 ng/ml) diluted in PBS and incubated O/N at 4° C. Remaining” for “Remaining”, “above,” for “above with PBS/T or FcRn binding buffer (67 nM phosphate, 0.1 M NaCl, 0.05% T, pH 6.0),”, “15-20” for “20-30”

T7 sequence (P02745 23-245 limits assumed, chain 1 of 3): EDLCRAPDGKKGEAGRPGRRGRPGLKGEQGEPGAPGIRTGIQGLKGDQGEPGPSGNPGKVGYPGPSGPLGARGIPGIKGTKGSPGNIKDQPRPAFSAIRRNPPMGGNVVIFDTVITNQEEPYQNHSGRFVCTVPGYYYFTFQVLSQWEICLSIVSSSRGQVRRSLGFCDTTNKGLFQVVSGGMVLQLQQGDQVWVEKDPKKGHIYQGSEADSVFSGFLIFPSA
T7 sequence (P02746 28-253 limits assumed, chain 2 of 3): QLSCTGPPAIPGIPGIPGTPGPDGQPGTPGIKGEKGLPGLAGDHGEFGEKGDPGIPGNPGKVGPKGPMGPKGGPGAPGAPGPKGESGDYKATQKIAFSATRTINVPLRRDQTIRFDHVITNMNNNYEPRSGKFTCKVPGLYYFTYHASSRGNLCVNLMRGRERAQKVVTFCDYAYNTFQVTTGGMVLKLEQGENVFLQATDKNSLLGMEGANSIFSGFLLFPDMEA
T7 sequence (P02747 29-245 limits assumed, chain 3 of 3): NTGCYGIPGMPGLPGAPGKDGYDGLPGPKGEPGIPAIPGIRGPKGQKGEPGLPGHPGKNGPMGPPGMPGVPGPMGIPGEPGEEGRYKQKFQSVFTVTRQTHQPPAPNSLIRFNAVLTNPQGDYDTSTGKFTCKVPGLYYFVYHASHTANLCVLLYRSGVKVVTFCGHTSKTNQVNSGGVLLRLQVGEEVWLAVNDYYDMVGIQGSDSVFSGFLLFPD
T6 sequence (P12314 16-292): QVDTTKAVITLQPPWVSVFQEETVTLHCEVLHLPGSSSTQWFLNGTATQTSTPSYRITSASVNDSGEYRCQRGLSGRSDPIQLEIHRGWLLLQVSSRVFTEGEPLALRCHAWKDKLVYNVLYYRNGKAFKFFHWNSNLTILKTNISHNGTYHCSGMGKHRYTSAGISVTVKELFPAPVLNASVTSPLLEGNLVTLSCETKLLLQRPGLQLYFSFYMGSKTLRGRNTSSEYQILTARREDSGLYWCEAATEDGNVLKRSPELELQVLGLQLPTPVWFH
T5 sequence (P55899 24-297 limits assumed, chain 1 of 2): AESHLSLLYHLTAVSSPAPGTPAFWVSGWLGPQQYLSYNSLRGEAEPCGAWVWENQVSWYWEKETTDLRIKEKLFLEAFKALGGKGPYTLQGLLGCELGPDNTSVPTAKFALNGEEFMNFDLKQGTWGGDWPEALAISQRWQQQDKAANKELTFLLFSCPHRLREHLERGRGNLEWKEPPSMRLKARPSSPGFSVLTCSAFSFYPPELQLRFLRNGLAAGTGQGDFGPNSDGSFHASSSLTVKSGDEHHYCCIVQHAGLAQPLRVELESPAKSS
T5 sequence (P61769 21-119 limits assumed, chain 2 of 2): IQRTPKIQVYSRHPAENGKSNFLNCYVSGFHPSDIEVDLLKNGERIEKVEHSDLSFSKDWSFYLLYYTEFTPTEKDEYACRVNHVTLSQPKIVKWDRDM
T8 sequence (P08637 17-208): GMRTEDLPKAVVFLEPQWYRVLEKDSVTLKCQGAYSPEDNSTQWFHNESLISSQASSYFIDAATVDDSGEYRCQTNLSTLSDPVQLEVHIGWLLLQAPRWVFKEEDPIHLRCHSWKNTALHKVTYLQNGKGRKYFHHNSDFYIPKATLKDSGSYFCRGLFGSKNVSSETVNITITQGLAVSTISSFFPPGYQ

Binder	Ki(NNV009)/Ki(NNV020 var.) [1]	EC50 [2]	Ki [2]	EC50 (read off the curve) [3]	EC50 (read off the curve) [4]	other results
B1	4.31 fold	1.16 nM	0.533 nM			
B2	4.3 fold	1.16 nM	0.535 nM			
B3	4.27 fold	1.17 nM	0.539 nM			
B4				~0.04 µg/mL	~0.4 µg/mL	EC50 (read off the curve) [5]: ~0.7 µg/mL; EC50 (read off the curve) [6]: ~3 µg/mL; EC50 (read off the curve) [7]: ~1 µg/mL; EC50 (read off the curve) [8]: ~0.3 µg/mL; EC50 (read off the curve) [9]: ~0.8 µg/mL; EC50 (read off the curve) [10]: ~0.5 µg/mL
B5				~0.06 µg/mL	~0.4 µg/mL	
